Experiments:
[1] = biological target: GFP-VPS26A (p.K297X) (human, UniProt O75436 1-296); test: affinity purification with mass spectrometry
[2] = biological target: SNX27 PDZ domain in the presence of VPS26A (p.M112V) (rat | human, UniProt Q8K4V4;O75436, p.M112V); test: ITC
[3] = biological target: SNX27 PDZ domain in the presence of VPS26A (p.K93E) (rat | human, UniProt Q8K4V4;O75436, p.K93E); test: ITC
Sequence of SNX27 PDZ domain in the presence of VPS26A (p.K93E) (O75436 whole entry K93E, the tested form may be a part, one chain of several): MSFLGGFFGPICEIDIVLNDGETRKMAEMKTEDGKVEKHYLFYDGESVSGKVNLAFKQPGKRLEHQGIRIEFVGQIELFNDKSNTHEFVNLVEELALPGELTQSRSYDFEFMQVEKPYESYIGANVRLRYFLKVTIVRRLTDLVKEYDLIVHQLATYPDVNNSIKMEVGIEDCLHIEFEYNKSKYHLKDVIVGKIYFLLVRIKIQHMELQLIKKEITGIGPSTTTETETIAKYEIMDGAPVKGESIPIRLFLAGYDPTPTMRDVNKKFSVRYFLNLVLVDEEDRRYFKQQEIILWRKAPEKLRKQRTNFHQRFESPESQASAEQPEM

Sequence of GFP-VPS26A (p.K297X) (O75436 1-296): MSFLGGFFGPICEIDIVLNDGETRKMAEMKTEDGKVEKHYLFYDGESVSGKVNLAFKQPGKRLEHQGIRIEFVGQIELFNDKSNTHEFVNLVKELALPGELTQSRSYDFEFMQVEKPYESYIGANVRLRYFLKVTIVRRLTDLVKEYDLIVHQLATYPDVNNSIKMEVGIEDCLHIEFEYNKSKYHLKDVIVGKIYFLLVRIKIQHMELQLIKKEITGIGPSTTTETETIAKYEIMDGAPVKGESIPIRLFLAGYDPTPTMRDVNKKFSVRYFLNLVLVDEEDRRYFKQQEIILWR
Sequence of SNX27 PDZ domain in the presence of VPS26A (p.M112V) (O75436 whole entry M112V, the tested form may be a part, one chain of several): as the sequence (O75436 whole entry K93E, the tested form may be a part, one chain of several) above, with E93K, M112V counted along it

| SILAC enrichment ratio, mutant over wild-type GFP-VPS26A [1] | fold enhancement of binding over SNX27 PDZ domain alone [2] | fold enhancement of binding over SNX27 PDZ domain alone [3] | Binder |
| --- | --- | --- | --- |
| 17.2 | – | – | PKD2 (natural protein) MVNSSRVQPQQPGDAKRPPAPRAPDPGRLMAGCAAVGASLAAPGGLCEQRGLEIEMQRIRQAAARDPPAGAAASPSPPLSSCSRQAWSRDNPGFEAEEEEEEVEGEEGGMVVEMDVEWRPGSRRSAASSAVSSVGARSRGLGGYHGAGHPSGRRRRREDQGPPCPSPVGGGDPLHRHLPLEGQPPRVAWAERLVRGLRGLWGTRLMEESSTNREKYLKSVLRELVTYLLFLIVLCILTYGMMSSNVYYYTRMMSQLFLDTPVSKTEKTNFKTLSSMEDFWKFTEGSLLDGLYWKMQPSNQTEADNRSFIFYENLLLGVPRIRQLRVRNGSCSIPQDLRDEIKECYDVYSVSSEDRAPFGPRNGTAWIYTSEKDLNGSSHWGIIATYSGAGYYLDLSRTREETAAQVASLKKNVWLDRGTRATFIDFSVYNANINLFCVVRLLVEFPATGGVIPSWQFQPLKLIRYVTTFDFFLAACEIIFCFFIFYYVVEEILEIRIHKLHYFRSFWNCLDVVIVVLSVVAIGINIYRTSNVEVLLQFLEDQNTFPNFEHLAYWQIQFNNIAAVTVFFVWIKLFKFINFNRTMSQLSTTMSRCAKDLFGFAIMFFIIFLAYAQLAYLVFGTQVDDFSTFQECIFTQFRIILGDINFAEIEEANRVLGPIYFTTFVFFMFFILLNMFLAIINDTYSEVKSDLAQQKAEMELSDLIRKGYHKALVKLKLKKNTVDDISESLRQGGGKLNFDELRQDLKGKGHTDAEIEAIFTKYDQDGDQELTEHEHQQMRDDLEKEREDLDLDHSSLPRPMSSRSFPRSLDDSEEDDDEDSGHSSRRRGSISSGVSYEEFQVLVRRVDRMEHSIGSIVSKIDAVIVKLEIMERAKLKRREVLGRLLDGVAEDERLGRDSEIHREQMERLVREELERWESDDAASQISHGLGTPVGLNGQPRPRSSRPSSSQSTEGMEGAGGNGSSNVHV |
| – | > 10 fold | > 10 fold | PPESESKV [Kir3.3 peptide (PPESESKV)] |
| 6.55 | – | – | DENND4C (natural protein) not shown |
